# Experimental data from article PMC8906542.
# Where a chain is given by its changes, count along the chain named.
# T1: ErmE K164S (Saccharopolyspora erythraea, UniProt P07287 1-381, K164S)
# T1 sequence: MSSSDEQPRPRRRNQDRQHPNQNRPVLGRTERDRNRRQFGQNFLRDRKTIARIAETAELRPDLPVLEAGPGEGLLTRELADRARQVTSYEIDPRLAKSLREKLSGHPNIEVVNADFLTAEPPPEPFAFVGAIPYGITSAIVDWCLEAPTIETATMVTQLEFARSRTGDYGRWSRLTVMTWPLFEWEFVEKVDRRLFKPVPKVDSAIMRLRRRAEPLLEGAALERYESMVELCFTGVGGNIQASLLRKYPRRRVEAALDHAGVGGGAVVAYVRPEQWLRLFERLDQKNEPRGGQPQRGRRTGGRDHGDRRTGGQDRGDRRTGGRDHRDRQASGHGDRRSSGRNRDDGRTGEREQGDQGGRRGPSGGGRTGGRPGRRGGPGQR
# T2: ErmE K164M (Saccharopolyspora erythraea, UniProt P07287 1-381, K164M)
# T2 sequence: T1 sequence with S164M
# T3: ErmE E160W (Saccharopolyspora erythraea, UniProt P07287 1-381, E160W)
# T3 sequence: T1 sequence with E160W, S164K
# T4: ErmE E160A (Saccharopolyspora erythraea, UniProt P07287 1-381, E160A)
# T4 sequence: T1 sequence with E160A, S164K
# T5: ErmE R165A (Saccharopolyspora erythraea, UniProt P07287 1-381, R165A)
# T5 sequence: T1 sequence with S164K, R165A
# T6: ErmE R163E (Saccharopolyspora erythraea, UniProt P07287 1-381, R163E)
# T6 sequence: T1 sequence with R163E, S164K
# Experiments:
# Assay in all cases: fluorescence polarization
# ErmE K164S = biological target: T1, ErmE K164S
# ErmE K164M = biological target: T2, ErmE K164M
# ErmE E160W = biological target: T3, ErmE E160W
# ErmE E160A = biological target: T4, ErmE E160A
# ErmE R165A = biological target: T5, ErmE R165A
# ErmE R163E = biological target: T6, ErmE R163E
binder,measurement,setting,value
"GGCCUGCGGCAAGACGGAAAGACCAUGGUCCCUAUCUGCCGCAGGAUC (structured_RNA) [V48 Erm substrate (23S rRNA helix 73 mimic, 48 nt)]",binding result,ErmE K164S,binds
same,binding result,ErmE K164M,binds
same,binding signal,ErmE E160W,~4 fold Kd increase vs wt
same,binding result,ErmE E160A,binds
same,Kd,ErmE R165A,490 ± 50 nM
same,Kd,ErmE R163E,3700 nM
